Measurements from the DeepSol protein solubility set.

test: soluble on expression in E. coli; label from the status in PepcDB or PDB records

| Sequence | soluble on expression in E. coli |
| --- | --- |
| VQAVAVLKGDAGVSGVVKFEQASESEPTTVSYEIAGNSPNAERGFHICEFGDATNGCVSAGPHFNPFKKTHGAPTDEVRHVGDMGNVKTDENGVAKGSFKDSLIKLIGPTSVVGRSVVIHAGQDDLGKGDTEESLKTGNAGPRPACGVIGLTN | soluble |
| ESKSPIIQNVLSYITEHFSEGMSLKTLGNDFHINAVYLGQLFQKEMGEHFTDYLNRYRVNYAKEELLQTKDNLTIIAGKSGYTDMAYFYRQFKKHTGETPNRYRKIHQ | soluble |
| MAETSNASAEPELIYFEVTSNEERFVHMVFQMASNTTNQFLIFVKDDETCFRAQRALYSSGEMTQCFLKNMNKDAFKKRKQELKNGTAKVWIADRSVIGKLVDCFSKELTVFLYDGISNDFPKQAVGKCHSVISLKQSRHTAVNTSDGLFEQVFHICQLYNATFTSPIKDWMASSKNGDLPENADTMKLVIARPSELLNSASTLRSFNDIVAKDPRILNLMEAFKVIENKARIDKDDNSRGMLYLCVKMRSELDGQYVTKNKADQFYRVEFNTLKNMKNKSEFLRKMCPS | not soluble |
| MSLTLLALGINHKTAPVSLRERVSFSPDKLDQALDSLLAQPMVQGGVVLSTCNRTELYLSVEERDDLQEALIRWLCDYHNLNEDDLRNSLYWHQDNDAVSHLMRVASGLDSLVLGEPQILGQVKKAFADSQKGHMKASELERMFQKSFSVAKRVRTETDIGASAVSVAFAACTLARQIFESLSTVTVLLVGAGETIELVARHLREHKVQKMIIANRTRERAQILADEVGAEVIALSDIDERLREADIIISSTASPLPIIGKGMVERALKSRRNQPMLLVDIAVPRDVEPEVGKLANAYLYSVDDLQSIISHNLAQREGHHHHHH | not soluble |
| MSVELRDATVDDLSGIMEIYNDAVVNTTAIWNEVVVDLENRKDWFAARTSRGFPVIVAILDGKVAGYASYGDWRAFDGYRHTREHSVYVHKDARGHGIGKRLMQALIDHAGGNDVHVLIAAIEAENTASIRLHESLGFRVVGRFSEVGTKFGRWLDLTCMELKLG | not soluble |
| MGSDKIHHHHHHMKHMNNSVDQQIALFGQSGSGKTALLCSFYGAARDSTQSEGQLFELSAKDDRHTKLMKMYLGMKEDSLAPPQNRFESHKTVFSLKQKNIPIKDAAKSDQVNLTWHDYPGEWFEGGAVTDSEKQDKVETFRNLLGSDVALFLVDGQKLHDYANEEERYLSYLFDGFIENLNQIKDAILEGGKQLQQFPRIWVIALSKADLWPDLQVKDFENLLNKKAGNEIIALRSKLLEFIDNDEAFSFGKDFLLLSSAKFTPGHIDISQRKGVDVLLPLACVLPMQRHLWWQELKVLPINLADILLGNEIAQMGFKIVSKVLKNKVSGTNNKAMAALVFAELVRDMVDQPTELLQKAREEAVGRREFLKAITAEFTRKLNQAEADQVLVRDFA | not soluble |
| MSLKPRIAIVGLGLIGGSLARRLVNAGCEVTAWNHNDRPYATAEADGIICKPTLAALAETKPNVLVLCNPLKAMPEILGALKPLIDTETTTLTDVGSVKGMVRDQVKAIGLDGCYVGAHPMAGNELSGWEASDPTLYDDALWAITVDEHTEYRRFRAVADMIVNRCGNRLIVLDDATHDRCAALISHMPHVIATAMINELVANPNRNIAAALAAGSWRDMTRVALTDPNRTRAMVEEDAANVETLLRNMANRLTLVANVLHDMADTGVRPTEGDVKQMDRFFAQGQPFRDYKAASRQPEYAEHCATVELSIPENDWQRTLLESARRGEHIVRFDGERTAIAQARSVEGHHHHHH | soluble |
| MSLTEKVSVFALGGAGEIGKNMYVVELDEDIFVIDAGLMFPGDEMLGIDKVIPDISYLKENKERIQGIFITHGHEDHIGALSYVLRDLKVPVYGTRLTLGLIEIKLKEAGLLKKADLRPIDAKTKLTVAGHFITFFRVNHSIPDAVGVCIQTSQGAIVHTGDFKFDYTPVDGKQADFGKIAAIGQRGVLCLLSDSTNAERPGMSGSESTVGSELNDVIYEAPGRVIVASFASNVHRLQQVFAAAEANNEGHHHHHH | soluble |
| GMKTIDLADIQAFLYRESRLLDDKAWDAWLDCYRADAVFWMPSWDDADALVTDPQREISLIYYPNRQGLEDRVFRIKTERSSATVPDTRTSHNIANVERESADGDVHTVRFNWHTLSYRYKTVSSYFGMSRYAIDFSGDAPKIVSKYVVLKNDYINQLIDIYHI | soluble |
| MGSDKIHHHHHHTPLPPVKQPHPATSQQHQEPVRGVWLATVSRLDWPPVTSVNTNSPAIRITQQQEALKGKLDKLKSLGINTVFFQIKPDGTALWPSKILPWSDMMTGHIGEDPGYDPLQFMLDEAHKRGMKVHAWFNPYRVSVNTKSGTVAELNRTLSQNPASVFVLHRDWIRTAGDRFVLDPGIPEARNWITSIVAEVVARYAIDGVQFDDYFYAESPGSVLNDGETFKKYGQGFGSKADWRRHNTQQLIEQVSRTIKQLKPEVEFGVSPAGVWRNRSHDAAGSDTRGAAAYDEAYADTRLWVQQGLLDYIAPQLYWPFARDAARYDVLAKWWADVVKPTSTRLYIGVALYKVGEPSKNEPDWMISGGVPELKKQLDLNESTPHIDGTILFRENYLNQPQTQEAVNYLRNRWNPI | not soluble |
| MGSDKIHHHHHHMKNLYAKVIVGGSPISKSNFKLSNINGRAILPYNSGQYHDRYAIYEETIAYEARSQNPNTVISESIIAVLKVFYKSKKRHPDTNNITKSIFDGIEKSGIIVNDAQITRIIIEEYYDMINPRFELELFAESKFKMKYSILKKEEEDEPILYDPPSNKKRLITKTQKPKKSAQNGTITCSICGKKVTNDNIIWANKGTTALCKNCLKKSF | not soluble |
| GYWGCKDLNSVFVYANQAYGELIGLKRAEDCIGRTDFEMPSPTAACAAEFQQQDRYVIETGHSVKVLDIHPYPDGHWHAHIFTKTPWRDSQGKIQGTIFFGQDLT | not soluble |
| MAHHHHHHMNLSDSNKDLNDSKSDKSTSWVKWFNSRAFSNFLVEVDNEYITDSFNLYGLKSEMPNFNHLLSIVAGDAPEEDDAKNAFGKDAVSLYSLIHARFITTPKGLSLMKDKYIKGDFGSCPRVSCSQHNVLPIGLFDQIKIAKVHVYCPLCQEIYKIHEEDKVYLDGSFFGTSFPHILLQTYPYYATLKTPSYCTSKIFGFSVYHNFTRTEYKIAKGEFGKLSRENFLKKNPKYLKKLKKEELQIKDT | not soluble |
| MGSDKIHHHHHHMNSIVNDLNRALAQHLLVNVYQTNQEVVYTGYVTTVSDTGIILATYDDYGIPDGAVFLDLTAIDEVEFSSDDLDNMAFRIQTAQDEQFVQAGGLTLQFDGHRDLKRQVLSHAWVDHLVLMLVLKDDEHFYEGIVTSVAAEQVSLQLLNKFDYTDQPLLTLTPKDIEVIEFQGQELTLQGIALPHLQKLSHVAPTTVTDADQFVPTLQQLVGKEPLVALVPKHNRELFFVGRINTVTADGVIMNLLDMTGQFGGYTLMRLSELHEIVLKSDYLQTMRLFALLNRARQQPIQPVLNDERLFDATVDQFGARISQAAAFRTIIRLKLHDGTDLLGFPSQVGGQRFIFHEIDDQQVDQVGQVYRLADVDEVAFGYLDAYLVERQLRVEGDL | not soluble |
| MSLSQAHFSSWRGHQEFLAPHLIEGRAVRAFIGWAGVMIYDPTLDVIALAKEYARQYQCFAETCGRCAPGKFGGKILFDLLEKIDQGRGEESDLERLVEVGKLMMTTSKCEVGKTTPLPILDLLEAYRPLFVEALGNRSRKERSKKERYIAKITAPCIDACPAHVDIPAYIEGVRDHLLGDSLAATRKSMPLAQVCGRVCPHPCESACRRGDLDEPISIMELKRLGADYEKERHGGFIHPYPPKPRRKDKRVAIIGAGPAGLSSAYYLALEGIMSDVFEALPVLGGEVSVGVPEYRMPIDRYYHDIEAIKSLGVSFWTNHFVSAKELDEMRQKYDAIILATGARISKKLGVKGEEESLGGYAPAIPWLDQINLATKFNLAALPDLRGKSVVCVGGGFTSMDVVRCAVRLGAKRIVMLYRRDEATLIQNTSKEEYHEALEEGVEFLFQCAVQEIKSCGGEIKALLVEEYEVVYEEGARKPSLRRIEREPLFLECDLLIPAVSQEVDRSFIPKEWNLESTSWGSFKTNGKDFSTTLRGVFAAGDCEKGPLTIVNAVGQGKRAASVVSRFLEDGEITLTPEEEMEDWLKKEGVYDRSMPVVGWLAGLVRQESHKEEPLKRREDFREVNQGLSMQEAFAESERCMRCYYISMVALEGHHHHHH | not soluble |
| MHHHHHHSENTFIFPATFMWGTSTSSYQIEGGTDEGGRTPSIWDTFCQIPGKVIGGDCGDVACDHFHHFKEDVQLMKQLGFLHYRFSVAWPRIMPAAGIINEEGLLFYEHLLDEIELAGLIPMLTLYHWDLPQWIEDEGGWTQRETIQHFKTYASVIMDRFGERINWWNTINEPYCASILGYGTGEHAPGHENWREAFTAAHHILMCHGIASNLHKEKGLTGKIGITLNMEHVDAASERPEDVAAAIRRDGFINRWFAEPLFNGKYPEDMVEWYGTYLNGLDFVQPGDMELIQQPGDFLGINYYTRSIIRSTNDASLLQVEQVHMEEPVTDMGWEIHPESFYKLLTRIEKDFSKGLPILITENGAAMRDELVNGQIEDTGRQRYIEEHLKACHRFIEEGGQLKGYFVWSFLDNFEWAWGYSKRFGIVHINYETQERTPKQSALWFKQMMAKNGF | soluble |
| MPVGRREQIVDCRSVMGLGEGGGLAQRGTFAEALKNDVVVVAMSPGRRHITKPVCEITYGIREAGIQTSVLVLNAGSGIPHDAPRGALGSTFGIKPEEAEQINRHKLCVVHFGNVISHIVYKAGLLLKYVEIPTIIVCQAPVDMEDLAKYGIKTRDVMPLEPKTKGTVVDIVTGVIRGESCPQTKIDEVIRKIKLHLNLNLEHHHHHH | soluble |
| MAHHHHHHMSGVVIKKPNLKRLLAGQREELASFQPPVHPIPEYLGSPLPYLSNPYHIRGTLMAVEQEPEPNHEADGGKQLMADIMNERARICLEVEKTLALTCRVLDKAAQNDGELTELARESLARLTVMGEDLSNRMITSRE | not soluble |
| MGSDKIHHHHHHMKNIHSIEFYTGSKEELLPDFEKDFPYIASRAELDKYIGGYVPWHWHRTVELFYMESGSIEYDTPGGKILFPAGSGGMINPNVLHMTKAISQREKNIQLLHIFDVSLLAGEQGSRIEQKYIAPVITAPQIEVIPLFPGNAEEERILKLLAASFRLSSDEFGYEIKLREALTEIWLMLFELSCSMREKKGEHNKSNDKIKLMMIYIHEHYREKISILELAAAAYLSERECYRVFHDCLHMTPVEYITTYRLQIACQMLAKGQEPITVISHECGLGSSSYFGKVFREYAYCSPTEYRKKWQNSDM | not soluble |
| QQRQRRKRKELTNLIRRFRNGAESLPDAVVVFRAEGNIVWCNRLAQHLLGFHWPEDSGQPISNLIRTPDFIKYLNKKDFSEPLEMRSPLNVERMLELRIVPYTEGEHLMVVRDVS | soluble |
| SLNSPIATVEVFTLTQPRKVPYLGALREGEVVNPNGYIVRKGNRTVYPTFDRSVLVRMTTEAGTVGWGETYGIVAPGAVAALINDLLAGFVIGRDASDPSAVYDDLYDMMRVRGYTGGFYVDALAALDIALWDIAGQEAGKSIRDLLGGGVDSFPAYVSGLPERTLKARGELAKYWQDRGFNAFKFATPVADDGPAAEIANLRQVLGPQAKIAADMHWNQTPERALELIAEMQPFDPWFAEAPVWTEDIAGLEKVSKNTDVPIAVGEEWRTHWDMRARIERCRIAIVQPEMGHKGITNFIRIGALAAEHGIDVIPHATVGAGIFLAASLQASSTLSMLKGHEFQHSIFEPNRRLLDGDMDCREGRYHLPSGPGLGVRPSEAALGLIERI | soluble |
| SEDKKKKRSPKPCLTQQAQAPGTLRRVPVPTSHSGSLALGLPHLPSPKQRAKFKRAGKEKCRPVLAGGGGGSAGTPLQHSFLTEVTDVYEMEGGLLNLLNDFHSGRLQAFGKECSFEQLEHVREMQEKLARLHFSLDVCGEEEDEEEEEDGVTEGLPEEQKKTMADRNLDQLLSNLEDLSNSIQKLHLAENAEPEDQPAA | soluble |
